Assay results as given in paper PMC2839085.

Target: TmMre11 (TM1635) truncated construct, residues 1-324 (Thermotoga maritima) (UniProt Q9X1X0)
Assay: crystal structure

stoichiometry N: 2
Substance: TmMre11 (TM1635) truncated construct, residues 1-324 (from UniProt Q9X1X0 1-324) (domain or fragment)
